The text below walks through data of patent publication US20050089538A1 (IMMUNOMEDICS, published 2005).

Test [1] has as its target T1, carcinoembryonic antigen (human, UniProt P06731 35-685, limits assumed).
T1 construct: CEA sample fixed to a solid support, directly or through a capture antibody such as MN-15; also called CEA
T1 sequence (looked up): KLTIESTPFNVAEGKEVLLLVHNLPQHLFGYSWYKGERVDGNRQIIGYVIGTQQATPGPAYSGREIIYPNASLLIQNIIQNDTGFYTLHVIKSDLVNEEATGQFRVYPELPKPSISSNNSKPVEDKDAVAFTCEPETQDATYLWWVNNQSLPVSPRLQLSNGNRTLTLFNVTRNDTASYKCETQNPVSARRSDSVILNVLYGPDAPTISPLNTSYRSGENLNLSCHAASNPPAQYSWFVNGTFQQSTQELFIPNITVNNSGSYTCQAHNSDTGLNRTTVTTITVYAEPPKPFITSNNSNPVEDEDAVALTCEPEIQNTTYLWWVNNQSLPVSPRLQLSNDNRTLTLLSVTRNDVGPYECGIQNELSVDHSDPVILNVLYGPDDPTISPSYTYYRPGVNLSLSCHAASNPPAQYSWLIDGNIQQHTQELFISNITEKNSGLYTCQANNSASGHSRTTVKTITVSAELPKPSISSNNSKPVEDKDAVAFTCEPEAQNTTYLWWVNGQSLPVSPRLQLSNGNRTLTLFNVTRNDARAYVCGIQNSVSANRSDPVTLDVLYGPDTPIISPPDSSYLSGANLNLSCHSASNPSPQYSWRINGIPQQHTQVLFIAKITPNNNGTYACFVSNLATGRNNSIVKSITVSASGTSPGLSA
Briefly: MN-14 blocking assay on CEA, competitor HRP-labeled MN-14 (FIG. 9). Here is the method:
(§1) The humanized KLHuVH varients, such as antibody KLHuVHAIGA/HuVK, were purified and tested in a blocking assay carried out as follows. Antibodies were added at the indicated concentrations together with HRP-labeled MN-14 to a final volume of 0.1 ml. Following 30 mins. of incubation at 37₁C, and washing to remove unbound antibodies, the relative affinities of the antibodies were determined from the remaining bound peroxidase activity. A shown by the assay data of FIG. 9, the activity of the “reshaped” (i.e., CDR-engrafted on FR) humanized antibody was similar to that of chimeric and murine positive controls.

The target in test [2] is T1, carcinoembryonic antigen. As to the kind of experiment: MN-14 blocking assay on CEA, unlabelled murine MN-14 against HRP-labeled MN-14 (FIG. 9). Here is the method: as §1

B1: chimeric MN-14 antibody (MN-14 mouse VH and VK joined to human IgG1 and human kappa constant regions) (antibody, V domains shown)
VH: EVKLLESGGGLVQSGGSLKLSCAASGFDFTTYWMSWVRQAPGKGLEWIGEIHPDSSTINYAPSLKDKFIVSRDNAKNTLYLQMSKVRSEDTALYYCASLYFGFPWFAYWGQGTPVTVSA
VL: EIQLTQSHKMMSTSVGDRVSITCKASQDVGTSVAWYQQRPGQSPKLLIYWTSTRHTGVPDRFTGSVSGTDFTLTITNVQSEDLADYFCQQYSLYRSFGGGTKLEIK
notes: Human IgG1 constant region (Takahashi et al.) and human kappa constant region (Hieter et al.); The variable regions were re-amplified with primers VH1BACK/VH1FOR and VK8BACK/VK3FOR, so their terminal residues may be dictated by the primers; also called chimeric control; chimeric antibody
With B1, the binding result in test [1] is “binds”.

B2: murine anti-CEA IgG1 monoclonal antibody MN-14 (antibody, V domains shown)
VH: B1 VH
VL: B1 VL
notes: Murine kappa IgG1; also called mMN-14; murine control
For B2, the binding result in test [2] is given as “binds”.
